For this test, the target named is I95E mutant of the PAS-A domain of the Bacillus subtilis protein KinA (Bacillus subtilis). As to the kind of experiment: AUC.

For orientation: stoichiometry N means a count of units in the complex or per binding partner.

Regarding “I95E mutant of the PAS-A domain of the Bacillus subtilis protein KinA (domain or fragment)”, the log(Ka) amounted to 3.96, the log(k−) (log of koff) was -3.7 and the stoichiometry N was found to be 2.

For the origin of these results see article PMC3147155.
